In the nanobody polyreactivity screen of Harvey et al. (2022):

Assay: yeast display, Sf9 membrane polyspecificity reagent, FACS + sequencing; frameworks hold sequencing errors
Procedure, shortened: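 After 36–48 hours of galactose induction, yeast (Saccharomyces cerevisiae BJ5465) displaying a synthetic nanobody library were stained at 4 °C for 1 hour with 10% biotinylated, detergent-solubilized Sf9 membrane reagent. Streptavidin microbeads enriched the stained cells before FACS sorting into low and high (top ~1%) gates on anti-HA and streptavidin fluorescence. Each clone's polyreactivity label reflects its gate of origin.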
For “QVQLVESGGGLVQAGGSLRLSCAASGFIFSSYAMGWYRQAPGKERELVAAISWSDSSTYYADSVKGRFTISRDNSKNTVYLQMTSLKPEDTAVYYCNVEVAESYDYWGQGTQVTVSS”, the “polyreactivity (PSR sort gate)” value was “low polyreactivity”. In the case of “QVQLVESGGGLVQAGGSLRLSCAASGFIFSSYAMGWYRQAPGKERELVAAITRNGGSTYYADSVKGRFTISRDNAKNTVYLQMNSLKPEDTAVYYCAAPRWRGVGRFDYWGQGTQVTVSS”, the “polyreactivity (PSR sort gate)” value is reported as “high polyreactivity”. For “QVQLVESGGGLVQAGGSLRLSCAASGFIFSSYAMGWYRQAPGKERELVAAITVRAGRTYYADSVKGRFTISRDNATNTVYFQMNSVKAEDTAVDYCAAAYRHPYGKYVYWGQGTQVTVSS”, the “polyreactivity (PSR sort gate)” value was “high polyreactivity”. For “QVQLVESGGGLVQAGGSLRLSCAASGFIFSSYAMGWYRQAPGKERELVASIRRRGGSTYYADSVKGRFTISRDNAKNTVYLQMNSLKPEDTAVYYCAASRVSYGTRFDYWGQGTQVTVSS”, the “polyreactivity (PSR sort gate)” value was “high polyreactivity”. With “QVQLVESGGGLVQAGGSLRLSCAASGFIFSSYTMGWYRQAPGKERELVAAITSRGGSTYYADSVKGRLTISRDNAKNTVYLQMNSLKPEDTAVYDWNARRIPYSPYGVHEGYYWGLGTQVTVSS” the “polyreactivity (PSR sort gate)” value was “high polyreactivity”. With “QVQLVESGGGLVQAGGSLRLSCAASGFIFSTNAMGWYRQAPGKERELVATIRSGGSTNYADSVKGRFTISRDNAKNTVYLQMNSLKPEDTAVYYCAAEPPGSTYEGGYWGQGTQVTVSS” the “polyreactivity (PSR sort gate)” value was “low polyreactivity”. In the case of “QVQLVESGGGLVQAGGSLRLSCAASGFIFSWYAMGWYRQAPGKERELVARISSSGGNTYYADSVKGRFTISRDNAKNTVYLQMNSLKPEDTAVYYCAAGYRYRYDYWGQGTQVTVSS”, the “polyreactivity (PSR sort gate)” value is reported as “high polyreactivity”. For “QVQLVESGGGLVQAGGSLRLSCAASGFIFSYAMGWYRQAPGKERELVAAISKSGGRTYYADSVKGRFTISRDNAKNTVYLQMNSLKPEDTAVYYCAVRDLHLSIARYNYWGQGTQVTVSS”, the “polyreactivity (PSR sort gate)” value was “high polyreactivity”. For “QVQLVESGGGLVQAGGSLRLSCAASGFIFSYNAMGWYREAPGKERELVAAISSRGGSTYYADSVKGRFTISRDNAKNTVYLQMNSLKPEDTADYYCAVASRRVYTAPYDYWGQGTQVTVSS”, the “polyreactivity (PSR sort gate)” value was “high polyreactivity”. With “QVQLVESGGGLVQAGGSLRLSCAASGFIFSYNAMGWYRQAPGKERELVAAISSSGGTTYYADSVKGRFTISRDKAKNTVYLQMNSLKPEDTAVYYCNKTTHSRTFRYDYWAQGTQVTVSS” the “polyreactivity (PSR sort gate)” value was “low polyreactivity”. For “QVQLVESGGGLVQAGGSLRLSCAASGFIFSYNAMGWYRQAPGSERELVAAITRRTASTYYADSVKGRFTISRDNAKNTVYFQMNSLKPEDTAVYYCAADSSLKRPYYAGYYYWGQGTQVTVSS”, the “polyreactivity (PSR sort gate)” value was “high polyreactivity”. For “QVQLVESGGGLVQAGGSLRLSCAASGFIFSYYAMGLYRQAPGKERELVAAIDYSGGSTNYADSVKGRFTISRDIAKYTVYLQMNSLKPEDTAVYYCNAEYTWHRGYDYWGQGTQVTVSS”, the “polyreactivity (PSR sort gate)” value was “low polyreactivity”. For “QVQLVESGGGLVQAGGSLRLSCAASGFIFSYYAMGWYRQAPGKEREFVAAISRRGGSTYYADSVKGRFTISRDNAKNTVYLQMISLKPDDSAVYYCARRRTSTAVREHYYRDWYGYDYWGQGTQVTVSS”, the “polyreactivity (PSR sort gate)” value was “high polyreactivity”. For “QVQLVESGGGLVQAGGSLRLSCAASGFIFSYYAMGWYRQAPGKERELVAAITVRGGSTYYADSVKGRFTISRDNAKNTVYLQRNCLKPEDTAVYYCNTVHGLWRRYNYWGQGTQVTVSS”, the “polyreactivity (PSR sort gate)” value was “high polyreactivity”. For “QVQLVESGGGLVQAGGSLRLSCAASGFIFSYYAMGWYRQAPGKERELVAAITWDGGSTYYADSVKGRFTISRDNAKNTVYLQMNSLKPEDTAVYYCNAYYYYRRPLEGGYGGQGTQVTVSS”, the “polyreactivity (PSR sort gate)” value was “low polyreactivity”. In the case of “QVQLVESGGGLVQAGGSLRLSCAASGFIFSYYAMGWYRQAPGKEWELVAAISQNVAGTYYADSVKGRFTISRDNAKNTVYLQMNSLKPEDTAVYYCNARPYSGKYYYWGQGTQVTVSS”, the “polyreactivity (PSR sort gate)” value is reported as “high polyreactivity”. For “QVQLVESGGGLVQAGGSLRLSCAASGFIFSYYAMGWYRQEPGKERELVAAITSNGGITYYADSVKGRFTISRDNAKNTVYLQMNSLKPEDTAVYYCNAYYTSTSYDYWGQGTQVTVSS”, the “polyreactivity (PSR sort gate)” value was “high polyreactivity”. In the case of “QVQLVESGGGLVQAGGSLRLSCAASGFIFTDNAMGWYRQAPGKEREFVAAITYSGGSTYYADSVKGRFTISRDNAKNTVYLQMNSLKPEDTAVYYCNKDVFPAPGGVTAYEYEYWGQGTQVTVSS”, the “polyreactivity (PSR sort gate)” value is reported as “low polyreactivity”. In the case of “QVQLVESGGGLVQAGGSLRLSCAASGFIFTEYAMGWYRQAPGKERELVAAISRSDDGTHYADSVKGRFTISRDYAKNTVYLPMNSLKPEDTAVYDCAAYRDYQYDYWGQGTQVTVSS”, the “polyreactivity (PSR sort gate)” value is reported as “low polyreactivity”. With “QVQLVESGGGLVQAGGSLRLSCAASGFIFTGYAMGWYRQAPGTEREFVAAISYSGGSTYADSVKGRFTISRDNAKNTVYLQMNSLKPEDTAVYYCNARQGLWRYTAENDYWGQGTHVTVSS” the “polyreactivity (PSR sort gate)” value was “low polyreactivity”. With “QVQLVESGGGLVQAGGSLRLSCAASGFIFTIYAMGWYRQAPGKERELVAAISSGGSTTYADSVKGRFTISRDNAKNTVYLQMNSLKPEDTAVYYCNADYQYNRYSRVVGGHYVGWYGYWGQGTQVTVSS” the “polyreactivity (PSR sort gate)” value was “low polyreactivity”. With “QVQLVESGGGLVQAGGSLRLSCAASGFIFTIYAMGWYRQAPGKERELVAAITWNGGRTYYADSVKGRFTISRDNAKNTVYLQMNSLKAEDTAVYYCAARYGRAYDYWGQGTQVTVSS” the “polyreactivity (PSR sort gate)” value was “high polyreactivity”. In the case of “QVQLVESGGGLVQAGGSLRLSCAASGFIFTKNAMGWYRQAPGKDRVLVAAITSSGGNTYYADSVKRRFTIARDNAKNTVYLQMNSLKPEDTAVYYCAASRFLRMYWGQGTQVTVSS”, the “polyreactivity (PSR sort gate)” value is reported as “high polyreactivity”. For “QVQLVESGGGLVQAGGSLRLSCAASGFIFTKYTMGWYRQAPGKERELVAAIRSDGVRTYYADSVKGRFTISRDNAKNTVYLQMNSLKPEDTAVYYCNRVSAVRIGAGDYWGQGTQVTVSS”, the “polyreactivity (PSR sort gate)” value was “high polyreactivity”. For “QVQLVESGGGLVQAGGSLRLSCAASGFIFTKYTMGWYRQAPGKERELVAAITGRGTSTYADSVKGRFTISRDNAKNTVYLPMNSLIPEDTAVYYCAAVGWFAVFLFSDINGYYLGQGTQVTVSS”, the “polyreactivity (PSR sort gate)” value was “low polyreactivity”. With “QVQLVESGGGLVQAGGSLRLSCAASGFIFTRNAMAWYRQAPGKEREMVAGISVRGGATYYADSVKGRFTLSRDNAKNSFYLQMNSLKPEDTAVYYCAARYWRGPRYDYWGQGTKVTVSS” the “polyreactivity (PSR sort gate)” value was “high polyreactivity”. For “QVQLVESGGGLVQAGGSLRLSCAASGFIFTRNRMGWYRHAPGKETELVAAISSGGRTYYADSVKGRFTISRDNAMNTVYLQMNSLIPEDTAVYYCNAGNRGVYRYDYWGQGTQVNVSS”, the “polyreactivity (PSR sort gate)” value was “high polyreactivity”. For “QVQLVESGGGLVQAGGSLRLSCAASGFIFTRYAMGGYRHAPGKERELVAAISWSGGRTYYADSVKGRFTISRDNANNTVYLQMNSLKPEDTAVYYCAARWVRIRFDYWGQGTQVAVSS”, the “polyreactivity (PSR sort gate)” value was “high polyreactivity”. For “QVQLVESGGGLVQAGGSLRLSCAASGFIFTRYAMGWYRQAPGKERELVAAISWSGGSTYYADSVKGRFTISRDNAKNTVYLQMNSLKPEDTAVYYCAADGSDSYDYWGQGTQVTVSS”, the “polyreactivity (PSR sort gate)” value was “low polyreactivity”. With “QVQLVESGGGLVQAGGSLRLSCAASGFIFTVNAMGRYRQAPGKERELVAAITQSGGNRSYADSVKGRFTISSDKAKNTVYLQMNSLKPEDTAVYYCNASSDTSRYGVSTYYYWGQGTQVTVSS” the “polyreactivity (PSR sort gate)” value was “low polyreactivity”. In the case of “QVQLVESGGGLVQAGGSLRLSCAASGFIFVDYDMVWYRQAPGKERELVAAISARGGSTNYADSVKGRFTISRDNAKNTVYLQMNSLKPEDTAVYYCAADTPVWSGYWYDYWGQGTQVTVSS”, the “polyreactivity (PSR sort gate)” value is reported as “low polyreactivity”. For “QVQLVESGGGLVQAGGSLRLSCAASGFIFVGNDMGWYRQAPGKERELVAAISSGGTTNYADSVKGRFTISRDNAKNTVYLQMNSLIPEDTAVYYCAADYDYRQGYDSVHLDYWGQGTQVTVSS”, the “polyreactivity (PSR sort gate)” value was “low polyreactivity”. In the case of “QVQLVESGGGLVQAGGSLRLSCAASGFIFVGYAMGWYRQAPGKERELVAAISWDGGSTDYADSVKGRFTISRDNAKNTVYLQMNSLKPEDTAVYYCAASYQYWGFWYEYWGQGTQVTVSS”, the “polyreactivity (PSR sort gate)” value is reported as “high polyreactivity”. With “QVQLVESGGGLVQAGGSLRLSCAASGFIFVKYDMGWYRQAHGKERELVAAITTSGTGTFYADSVKGRFTISRDNAKNTVDLQMNSLKPEDTAVYYCNSLGHPGDDWGQGTQVTVSS” the “polyreactivity (PSR sort gate)” value was “low polyreactivity”. With “QVQLVESGGGLVQAGGSLRLSCAASGFIFVNYAMGWYRQAPGKERELVAAISRNGGRTYYADSVKGRFTISRDNAKNTVYCQMNSLTPEDTAVYYCTAELSGKRDYWGQGTQVTVSS” the “polyreactivity (PSR sort gate)” value was “high polyreactivity”. With “QVQLVESGGGLVQAGGSLRLSCAASGFIFVNYMGWYRQAPGKERELVAAISRGGSTNYADSVKGRFTISRDNAKNNVFLQMNSLKPEDTAVYYCAAETWYSGYTYDYWGQGTQVTVSS” the “polyreactivity (PSR sort gate)” value was “low polyreactivity”. For “QVQLVESGGGLVQAGGSLRLSCAASGFIFVPNAMGWYRQAPGKERELVAAITWSGSSTYYADSVKGRFTISRDNAKNTVYLQINSLKPEDTAVYYCAADYPVWDEFYDSYEYWGQGTQVTVSS”, the “polyreactivity (PSR sort gate)” value was “high polyreactivity”. In the case of “QVQLVESGGGLVQAGGSLRLSCAASGFIFVPYAMGWDRQAPGNERELVAAITWSGAATYYADSVQGRFTISRDNAKNTVYLQLNSLKPEDTAVYYCAAENWLPQTGGYYWYDSWGQGTQVTVSS”, the “polyreactivity (PSR sort gate)” value is reported as “high polyreactivity”. In the case of “QVQLVESGGGLVQAGGSLRLSCAASGFIFVPYAMGWYRQAPGKERELVAAITWSGASTYYADSVKGRFTISRDNAKNTVYLQMNRLKPEDTAVYYCAAENWLPQTGGYYWYDYWGQGTQVTVSS”, the “polyreactivity (PSR sort gate)” value is reported as “high polyreactivity”. In the case of “QVQLVESGGGLVQAGGSLRLSCAASGFIFVRNTMGWYRQAPGKERELVASISRRGRTTYYADSVKGRFTISRDNAKNTVSLQMNSLKPEDTAVYYCNARYRVPKQGDYWGQGTQVTVSS”, the “polyreactivity (PSR sort gate)” value is reported as “high polyreactivity”. In the case of “QVQLVESGGGLVQAGGSLRLSCAASGFIFVRYAMGWSRPAPGKERELVDAISGSGGRTYYADSVKGRFTISRDNAKNTVYLQMNSLIPEDTAVYYCNVKSYTYGYLPYDYWGQGTQVTVSS”, the “polyreactivity (PSR sort gate)” value is reported as “high polyreactivity”.
